From US9012407B2, “Therapies which act on neuropeptide S receptors” (The Regents of the University of California, priority 2004, dated 2015)
Where a chain is given by its changes, count along the chain named. Where no end group is shown, it is not given here. The star is where a group is joined. 125I = radioactive iodine-125 label on the tyrosine, [125I]*

How the values were obtained:
[1] = target: T1, NPSR WT (Homo sapiens, UniProt Q6W5P4); assay: Intracellular Ca2+ mobilization (FLIPR) in HEK 293 cells stably expressing NPSR WT; assay type: cell-based; conditions: for agonist activity, Ca2+ mobilization: individual HEK 293 clone; for agonist potency compared to the human peptide: Ca2+ mobilization
T1 construct: The primary structure of the wildtype NPSR (NPSR WT) is identical to isoform A of GPRA; expressed in transfected cells
T1 sequence (Q6W5P4 1-371): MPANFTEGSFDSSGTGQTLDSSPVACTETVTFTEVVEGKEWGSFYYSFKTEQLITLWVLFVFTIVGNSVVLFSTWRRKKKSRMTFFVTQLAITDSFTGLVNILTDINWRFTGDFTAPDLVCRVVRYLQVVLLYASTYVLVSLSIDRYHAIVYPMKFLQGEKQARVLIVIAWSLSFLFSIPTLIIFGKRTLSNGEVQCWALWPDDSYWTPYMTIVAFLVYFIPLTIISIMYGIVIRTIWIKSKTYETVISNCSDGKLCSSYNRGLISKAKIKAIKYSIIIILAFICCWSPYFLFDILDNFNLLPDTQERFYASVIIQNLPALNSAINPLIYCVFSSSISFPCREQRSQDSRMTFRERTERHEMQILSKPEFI
Experimental: (§1) Changes of agonist-induced intracellular Ca^2+ were measured using the FLIPR technology as described before (5, 6). NPS and truncated NPS peptides were a gift from Phoenix Pharmaceuticals (Belmont, Calif.). Dose-response curves were calculated using GraphPad Prism (Graph Pad, San Diego). Mean EC50 values of populations of stable clones expressing either wildtype or mutant NPSR were compared using unpaired t-test and p<0.05 was considered significant.
(§2) Two cells lines expressing similar levels (measured by radioligand binding; see below) of either NPSR WT or NPSR Ile were chosen for detailed analyses of pharmacological parameters. […] In order to investigate whether this tenfold increase in agonist potency at NPSR lie was a general property of the receptor protein we compared a large number of stable clones expressing either NPSR WT or NPSR Ile^107 by establishing dose-response curves for each construct and calculating mean EC50 values for the populations.

[2] = target: T2, NPSR Ile^107 (Homo sapiens, UniProt Q6W5P4, N107I); assay: Intracellular Ca2+ mobilization (FLIPR) in HEK 293 cells stably expressing NPSR Ile107; assay type: cell-based; conditions: for agonist activity, Ca2+ mobilization: individual HEK 293 clone; for agonist potency compared to the human peptide: Ca2+ mobilization
T2 construct: The Ile^107 isoform of NPSR was generated by PCR using synthetic oligonucleotides and the Quik Change Site-Directed Mutagenesis kit from Stratagene; expressed in transfected cells
T2 sequence (Q6W5P4 1-371 N107I): T1 sequence (Q6W5P4 1-371) with N107I
Experimental: as §1, §2

[3] = tested on: rodents; conditions: cited from earlier work
[4] = single i.c.v. injection; cited from earlier work
[5] = target: T3, human NPSR (Homo sapiens, UniProt Q6W5P4); assay: Mobilization of intracellular Ca2+ (FLIPR) in HEK 293T cells stably expressing human NPSR; assay type: cell-based; conditions: for EC50: HEK 293T cells stably expressing human NPSR, read-out: EC50 for mobilization of [Ca2+]i
T3 construct: This receptor protein is identical to the NPSR that we have studied extensively for its pharmacology; expressed in transfected cells
T3 sequence (Q6W5P4 1-371): T1 sequence (Q6W5P4 1-371)
Experimental: Cell lines stably expressing human NPSR in both Chinese hamster ovary (CHO) cells and human embryonic kidney 293 T cells (HEK 293T) were used to define the pharmacological characteristics of NPS. […] HEK 293T cells and CHO dhfr(−) cells were transfected with the human NPSR cDNA cloned into pcDNA 3.1(+) using LipofectAmine. Stable clones were selected with 800 mg/l G418 and tested for mobilization of intracellular Ca^2+ with 100 nM NPS (generous gift of Phoenix Pharmaceuticals, Belmont, Calif.). Changes in intracellular Ca^2+ were measured in a fluorometric imaging plate reader system (FLIPR, Molecular Devices) as described before(Saito et al., 1999). Dose response curves for agonist activation were calculated from peak fluorescence values of triplicate incubations and EC50 values were calculated with Prism software (GraphPad, San Diego, Calif.).

[6] = target: human Neuropeptide S receptor, wildtype (NPSR WT) (human) (UniProt Q6W5P4); assay: cell-based or functional assay
[7] = target: T4, human Neuropeptide S receptor, wildtype (NPSR WT) (human, UniProt Q6W5P4 1-371); assay: cell-based or functional assay
T4 sequence: T1 sequence (Q6W5P4 1-371)

[8] = target: T4, human Neuropeptide S receptor, wildtype …; assay: saturation radioligand binding to intact CHO cells stably expressing hNPSR
Experimental: (§3) The monoiodinated form of Y^10-NPS was used as a radioligand in receptor binding experiments. […] No specific binding was detected in mock-transfected CHO cells.
(§4) CHO cells stably expressing human NPSR were seeded into 24-well plates and cultured for 48 hours. […] Nonspecific binding was determined in the presence of 1 µM unlabeled human NPS. The binding assay was carried out as described (Sakurai et al., 1998). In brief, cells were washed with PBS first and then incubated with radioligand with or without unlabeled NPS peptide in DMEM medium containing 0.1% bovine serum albumin at 20° C. for 1.5 h. Cells were washed 5 times with cold PBS and lysed with 1 N NaOH. Bound radioactivity was counted in a MicroBeta liquid scintillation counter (EG&G Wallac, Gaithersburg, Md.) and corrected for counting efficiency. Data from triplicate incubations were analyzed using PRISM.

[9] = target: T4, human Neuropeptide S receptor, wildtype …; assay: saturation binding of [125I] Y10-NPS to stable clones, intact cells, average of n=4 clones
[10] = target: T5, human Neuropeptide S receptor Ile107 isoform (NPSR Ile107) (human, UniProt Q6W5P4 1-371); assay: as above
T5 construct: also called NPSR lie; Asn107Ile variant
T5 sequence: T1 sequence (Q6W5P4 1-371) with N107I

[11] = target: T4, human Neuropeptide S receptor, wildtype …; assay: saturation binding of [125I] Y10-NPS to stable clones, intact cells
[12] = target: T5, human Neuropeptide S receptor Ile107 …; assay: as above
[13] = target: T4, human Neuropeptide S receptor, wildtype …; assay: displacement of 0.15 nM [125I] Y10-NPS from CHO cells stably expressing hNPSR by unlabeled human NPS
Experimental: as §3, §4

[14] = target: human Neuropeptide S receptor C-terminal splice variant (NPSR C-alt) (human), Q6W5P4; assay: cell-based or functional assay
[15] = target: T5, human Neuropeptide S receptor Ile107 …; assay: cell-based or functional assay

With “NPS 4-20: human NPS fragment with the three amino-terminal amino acids deleted (NGVGTGMKKTSFQRAKS)” the “agonist activity, Ca2+ mobilization” value [1] was “completely abolished agonist activity” and the “agonist activity, Ca2+ mobilization” value [2] was “completely abolished agonist activity”.

In the case of “NPS 1-10: human NPS fragment, residues 1-10, after deletion of the two lysines at positions 11 and 12 (SFRNGVGTGM)”, the “agonist activity, Ca2+ mobilization” value [1] is reported as “full agonist activity” and the “agonist activity, Ca2+ mobilization” value [2] is reported as “full agonist activity”.

In the case of “Hcrt/Ox: neuropeptide hypocretin 1/orexin A, literature comparison (QPLPDCCRQKTCSCRLYELLHGAGNHAAGILTL; ends and bridges not checked; cysteine pairing not given here; UniProt O43612 34-66, looked up)”, the “effect on anxiety-like behavior” value [3] is given as “no effect” and the duration of arousal [4] is given as 2 to 3 h.

For “NPS 1-12: carboxy-terminally truncated fragment of human NPS, residues 1-12 (SFRNGVGTGMKK)”, the “antagonist activity against activation by NPS 1-20” value [1] was “failed to block activation”, the “agonist activity, Ca2+ mobilization” value [1] was “almost completely lost agonist activity” and the “antagonist activity against activation by NPS 1-20” value [2] was “failed to block activation”. The “agonist activity, Ca2+ mobilization” value [2] was “full, but weakly potent, agonist”.

With “H-SFRNGVGTGYKKTSFQRAKS-OH [Human Y^10-NPS]” the agonist activity ([5]; human NPSR, Ca2+ mobilization) was “full agonist activity”.

Molecule “mouse Neuropeptide S (from UniProt P0C0P8 70-89)” has an EC50 for mobilization of [Ca2+]i, HEK 293T cells stably expressing human NPSR [6] of 3 nM.

In the case of SFRNGVGSGVKKTSFRRAKQ [rat NPS], the “agonist potency compared to the human peptide” value [1] is reported as “slightly more potent”, the “agonist potency compared to the human peptide” value [2] is reported as “slightly more potent” and the EC50 [5] is reported as 3.2 ± 1.1 nM.

With SFRNGVGSGAKKTSFRRAKQ [mouse NPS] the “agonist potency compared to the human peptide” value [1] was “slightly more potent”, the “agonist potency compared to the human peptide” value [2] was “slightly more potent” and the EC50 [5] was 3 ± 1.3 nM.

With “rat Neuropeptide S (from UniProt P0C0P7 70-89)” the EC50 for mobilization of [Ca2+]i, HEK 293T cells stably expressing human NPSR [6] was 3.2 nM.

For SFRNGVGTGYKKTSFQRAKS [Human Y10-NPS (unlabeled)], the “EC50, agonist activity (Ca2+ mobilization, data not shown)” value [7] was 6.7 nM.

B1: [125I] Y10-hNPS (monoiodinated human Y10-NPS radioligand) (peptide)
peptide: SFRNGVGTGY(125I)KKTSFQRAKS
modifications: also: monoiodinated with 125I (chloramine T)
notes: Human NPS in which the residue at position 10 is replaced by tyrosine, then radioiodinated; also called Y10-NPS; the radioligand
In the case of B1, the Kd [8] is reported as 0.33 nM, the Kd [9] is reported as 0.347 nM and the Kd [10] is reported as 0.403 nM. The Kd [11] was 0.2 to 0.45 nM and the Kd [12] was 0.17 to 0.4 nM.

B2: human Neuropeptide S (hNPS) (peptide)
peptide: SFRNGVGTGMKKTSFQRAKS-OH
notes: 20-residue mature peptide with free C-terminus (-OH); also called human NPS; NPS 1-20
For B2, the IC50 [13] was 0.42 nM, the EC50, CRE-luciferase reporter, transiently transfected HEK 293 cells [14] was 146 nM and the “EC50, CRE-luciferase reporter, transiently transfected HEK 293 cells” value [7] was 76.6 nM. The “EC50, MAPK phosphorylation, stable HEK cells” value [7] was 1.23 nM, the “EC50, cAMP accumulation, stable HEK clone” value [7] was 31.9 nM and the “EC50, increase in intracellular Ca2+ in cells stably expressing NPSR WT” value [7] was 5 to 10 nM. The “EC50, intracellular free Ca2+, single stable HEK 293 clone” value [7] was 12.4 nM, the “EC50 for mobilization of [Ca2+]i, HEK 293T cells stably expressing human NPSR” value [7] was 9.4 nM and the “mean EC50, NPS-induced CRE-luciferase reporter gene expression, n=7 stable HEK clones” value [7] was 45.1 nM. The “mean EC50, NPS-induced mobilization of intracellular Ca2+, n=16 stable clones” value [7] was 13 nM, the “EC50, CRE-luciferase reporter, transiently transfected HEK 293 cells” value [15] was 17.3 nM and the “EC50, MAPK phosphorylation, stable HEK cells” value [15] was 0.32 nM. The “EC50, cAMP formation, stable HEK clone” value [15] was 3.45 nM, the “EC50, intracellular free Ca2+, single stable HEK 293 clone” value [15] was 1.4 nM and the “mean EC50, NPS-induced CRE-luciferase reporter gene expression, n=21 stable HEK clones” value [15] was 0.63 nM. The “mean EC50, NPS-induced mobilization of intracellular Ca2+, n=21 stable clones” value [15] was 1.01 nM.
